{"source": "patent US10562935B2", "about": "“Stapled peptides and uses thereof” (London Health Sciences Centre Research Inc., priority 2015, dated 2020)", "assay": "Circular dichroism (CD) spectroscopy of HABD2 peptides in Milli-Q water (Example 1)", "assay_type": "physicochemical", "text": "In addition, a large mean residue ellipticity indicates greater α-helical character. […] This was predicted to be the case, as there is a lack of contributing residues that might form a hydrophobic core, thereby helping to stabilize the secondary structure of the linear peptide. For this reason, bridges were introduced into the peptides. […] The differences in α-helicity induced by the bridges placed at different points within each peptide may be due to the differences in their primary sequences. Specifically, two amino acids (at the i and i+4 position) have to be replaced in order to form the lactam bridge. In compound 133, leucine was replaced at both the i and i+4 position; while in compound 136, glutamine was replaced at the i position and aspartic acid was replaced at i+4. Leucine and glutamine are proposed to be helix-stabilizing residues.\nA larger portion of the RHAMM protein was used as the reference for α-helical character of the truncated peptides. 7 kDa RHAMM (SEQ ID NO: 1) is a mini protein that is composed of 62 amino acids, which was derived from the C-terminus of the full-length RHAMM sequence. It contains both HABDs, and is predicted to have almost complete α-helix shape, similar to that of native full-length RHAMM.\nA peptide's α-helicity can be quantified using equations 1-3: fH=[([θ]obs222−[θ]c)/([θ]max222−[θ]c)] (Equation 1) [θ]c=2220+53T (Equation 2) [θ]max222=(−44000+250T)(1−k/N) (Equation 3) where fH is the ratio of the average number of helical hydrogen bonds divided by the total number of hydrogen bonds that can be found in a peptide, T is the temperature in degrees Celsius, N is the number of residues in the peptide and k is a constant of ellipticity when 100% of the structure is α-helical (3 for carboxyamidated peptides).\nMilli-Q water was chosen as the solvent in which all peptides would be dissolved for CD spectroscopy, as it is a UV invisible solvent, which is a requirement of the analytical technique, and it represents RHAMM's natural environment in the body. Luo and Baldwin [18] stated that when peptides are taken out of their native protein sequence, they usually show little to no helical formation in water alone. For this reason, TFE/H2O solutions are commonly used in studies to observe the α-helix characteristics, and may improve the helical nature of the peptides observed here. However, a helix-stabilizing solvent, such as TFE, would not be as contextually relevant, as there are no solvent stabilizing effects in the body. Thus use of TFE would tend to produce skewed results and not be representative of the peptide's natural behavior."}
{"substance": "Ac-VSKLRSQLVKRKQN-NH2 [Compound 132]", "values": [{"measurement": "[θ]222/[θ]208 ratio of ellipticities", "setting": "0.5 mM in Milli-Q water", "value": 0.27}, {"measurement": "fH fraction helicity", "setting": "0.5 mM in Milli-Q water, equations 1-3", "value": 0.13}, {"measurement": "α-helical character by CD (in words)", "setting": "Milli-Q water", "value": "minimal α-helical character"}, {"measurement": "Molar ellipticity [θ]192", "setting": "λ = 192 nm, 0.5 mM in Milli-Q water", "value": "−433.48 deg cm^2 dmol^−1 residue^−1"}, {"measurement": "Molar ellipticity [θ]208", "setting": "λ = 208 nm, 0.5 mM in Milli-Q water", "value": "−4944.38 deg cm^2 dmol^−1 residue^−1"}, {"measurement": "Molar ellipticity [θ]222", "setting": "λ = 222 nm, 0.5 mM in Milli-Q water", "value": "−1339.76 deg cm^2 dmol^−1 residue^−1"}]}
